Measurements taken from patent US20200173986A1.

Columns and labels:
[1] = biological target: endogenous SNAP25 in total cell lysate; assay: sandwich ELISA with total cell lysate, negative control
[2] = biological target: endogenous SNAP25 in total cell lysate; assay: as above; remark: listed apart in the source
[3] = biological target: endogenous SNAP25 in total cell lysate; assay: as above; remark: listed apart in the source
[4] = biological target: endogenous SNAP25 in total cell lysate; assay: sandwich ELISA with total cell lysate, positive control
[5] = biological target: endogenous SNAP25 in total cell lysate; assay: as above; remark: listed apart in the source
[6] = biological target: endogenous SNAP25 in total cell lysate; assay: as above; remark: listed apart in the source

Chain of endogenous SNAP25 in total cell lysate (P60879 whole entry): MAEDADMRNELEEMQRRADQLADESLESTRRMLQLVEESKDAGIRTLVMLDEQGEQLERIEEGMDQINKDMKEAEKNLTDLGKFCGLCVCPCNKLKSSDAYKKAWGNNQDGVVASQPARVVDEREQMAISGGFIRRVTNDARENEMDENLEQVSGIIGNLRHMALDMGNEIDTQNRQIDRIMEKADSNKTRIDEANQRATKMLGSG

Substance	ELISA signal (A450) [1]	ELISA signal (A450) [2]	ELISA signal (A450) [3]	ELISA signal (A450) [4]	ELISA signal (A450) [5]	ELISA signal (A450) [6]
NC	0.213	0.125	0.27			
PC				2.5	3.49	2.77
